Data taken from patent US20240247080A1, “GLP1/GIP/NPY2 RECEPTOR TRIPLE AGONISTS” (Boehringer Ingelheim International GmbH, priority 2022, published 2024).
Starred links: 1 amine or outer side, 2 acyl side, 3 side chain; linkers in the order of their positions; H or OH if unused. Non-standard residues stand in square brackets, D forms with d. Groups on a side chain read outwards from the residue. No end group written: not given here. *: point of attachment. C20 diacid = O=C(O)CCCCCCCCCCCCCCCCCCC(=O)*; C18 diacid = O=C(O)CCCCCCCCCCCCCCCCC(=O)*; γGlu = O=C(O)[C@H](CCC(=O)[*:2])N[*:1]; εLys = N[C@@H](CCCCN[*:1])C(=O)[*:2]; AEEA = NCCOCCOCC(=O)O; Aib = CC(C)(N)C(=O)O

T1: GIP receptor (human (printed as hGIPR), UniProt P48546 22-466)
T1 sequence (looked up): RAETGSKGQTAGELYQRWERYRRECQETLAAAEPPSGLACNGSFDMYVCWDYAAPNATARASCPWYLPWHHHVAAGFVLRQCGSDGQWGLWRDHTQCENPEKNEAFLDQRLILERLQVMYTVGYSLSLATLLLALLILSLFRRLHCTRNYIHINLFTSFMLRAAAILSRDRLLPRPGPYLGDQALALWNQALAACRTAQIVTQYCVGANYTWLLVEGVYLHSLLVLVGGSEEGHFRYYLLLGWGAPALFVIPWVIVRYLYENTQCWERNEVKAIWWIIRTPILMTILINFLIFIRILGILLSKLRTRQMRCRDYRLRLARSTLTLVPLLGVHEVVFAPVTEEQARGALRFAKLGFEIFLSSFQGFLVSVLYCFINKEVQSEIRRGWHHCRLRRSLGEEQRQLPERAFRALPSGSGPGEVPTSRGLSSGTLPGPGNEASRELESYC

T2: NPY2 receptor (human (printed as hNPY2R), UniProt P49146 1-381)
T2 sequence (looked up): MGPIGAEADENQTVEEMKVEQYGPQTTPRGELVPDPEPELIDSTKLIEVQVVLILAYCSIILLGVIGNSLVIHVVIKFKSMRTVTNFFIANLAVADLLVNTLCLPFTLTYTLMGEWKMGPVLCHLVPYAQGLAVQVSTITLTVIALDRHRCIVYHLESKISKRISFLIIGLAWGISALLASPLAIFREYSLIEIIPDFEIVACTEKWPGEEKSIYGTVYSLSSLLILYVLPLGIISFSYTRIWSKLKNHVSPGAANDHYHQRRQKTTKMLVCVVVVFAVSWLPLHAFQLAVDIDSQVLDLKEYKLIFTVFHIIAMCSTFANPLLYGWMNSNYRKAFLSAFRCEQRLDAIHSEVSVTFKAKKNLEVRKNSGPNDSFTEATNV


Key:
Assay in all cases: cell-based or functional assay
GLP-1 receptor = GLP-1 receptor (human (printed as hGLP1R), UniProt P43220 24-463)
GIP receptor = biological target: T1, GIP receptor
NPY2 receptor = biological target: T2, NPY2 receptor

Binder | EC50 hGLP1R 0.5% hP (CreLuc) (GLP-1 receptor) [nM] | EC50 hGLP1R 100% hP (CreLuc) (GLP-1 receptor) [nM] | EC50 hGIPR 0.5% hP (CreLuc) (GIP receptor) [nM] | EC50 hGIPR 100% hP (CreLuc) (GIP receptor) [nM] | EC50 hNPY2R 0.5% hP (CreLuc) (NPY2 receptor) [nM] | EC50 hNPY2R 100% hP (CreLuc) (NPY2 receptor) [nM]
YXEGTFTSDYSIXLEKQAQXAFVEWLIKGGPSEGVSLRHYYNWLTRQRY (Aib at 2, 13, 20; K28 side chain carries C20DA-gGlu-gGlu-gGlu-gGlu-gGlu-gGlu-eLys; C-terminal amide) [Compound 241] | 0.77 | 9.65 | 0.69 | 4.36 | 16.6 | 34.1
YXEGTFTSDYSIXLEKQAQXAFVEWLIKGGPSTGASLRHYYNWLTRQRY (Aib at 2, 13, 20; K28 side chain carries C20DA-gGlu-gGlu-gGlu-gGlu-gGlu-gGlu-eLys; C-terminal amide) [Compound 244] | 0.19 | 5.98 | 0.32 | 2.32 | 13.5 | 58.3
Y[Aib]EGTFTSDYSI[Aib]LEKQAQ[Aib]AFVQWLIKGGPSEGASLRHYYNWLTRQRY-NH2 (not fully specified (residue 28); also: TFA salt) [Compound 243] | 0.12 | 5.96 | 0.54 | 2.97 | 9.16 | 50.6
Y[Aib]EGTFTSDYSI[Aib]LEKQAQ[Aib]AFVQWLIK([εLys-γGlu-γGlu-γGlu-γGlu-γGlu-C20 diacid])GGPSEGASLRHYYNWLTRQRY-NH2 (also: TFA salt) [Compound 242] | 0.13 | 4.69 | 0.32 | 1.72 | 7.54 | 28.8

Now from value to binder:

EC50 hGLP1R 0.5% hP (CreLuc) (GLP-1 receptor) [nM] | EC50 hGLP1R 100% hP (CreLuc) (GLP-1 receptor) [nM] | EC50 hGIPR 0.5% hP (CreLuc) (GIP receptor) [nM] | EC50 hGIPR 100% hP (CreLuc) (GIP receptor) [nM] | EC50 hNPY2R 0.5% hP (CreLuc) (NPY2 receptor) [nM] | EC50 hNPY2R 100% hP (CreLuc) (NPY2 receptor) [nM] | Binder
0.09 | 3.78 | 0.37 | 1.74 | 24.5 | 66.9 | Y[Aib]EGTFTSDYSI[Aib]LEKQAQ[Aib]AFVQWLIKGGPSEGASLRHYYNWLTRQRY-NH2 (not fully specified (residue 28); also: TFA salt) [Compound 245]
0.11 | 2.7 | 0.16 | 0.95 | 12.8 | 28.2 | YXEGTFTSDYSIXLEKQAQXAFVQWLIKGGPSEGASLRHYYNWLTRQRY (Aib at 2, 13, 20; K28 side chain carries C18DA-gGlu-gGlu-gGlu-gGlu-gGlu-OEG-OEG; C-terminal amide) [Compound 246]
0.13 | 1.78 | 0.19 | 1.25 | 17.8 | 50 | YXEGTFTSDYSIXLEKQAQXAFVQWLIKGGPSEGASLRHYYNWLTRQRY (Aib at 2, 13, 20; K28 side chain carries C18DA-E-E-E-E-E-E-eLys (SEQ ID NO: 643); C-terminal amide) [Compound 249]
0.25 | 8 | 0.12 | 0.79 | 18.7 | 48.4 | Y[Aib]EGTFTSDYSI[Aib]LEKQAQ[Aib]AFVEWLIK([AEEA-AEEA-γGlu-γGlu-γGlu-C18 diacid])GGPEEGASLRHYYNWLTRQRY-NH2 (also: TFA salt) [Compound 248]
0.11 | 2.2 | 0.26 | 1.57 | 11.9 | 64.7 | Y[Aib]EGTFTSDYSI[Aib]LEKQAQ[Aib]AFIEWLIK([γGlu-γGlu-γGlu-γGlu-C18 diacid])GGPSEGASLRHYYNWLTRQRY-NH2 (also: TFA salt) [Compound 247]
